Details in all cases: both partners purified
Assay [1] addresses T1, GST-Shc1 SH2 domain (human, UniProt P29353 488-579).
T1 construct: SH2 domain of Shc1; source: E. coli BL21, purified (glutathione sepharose, NAP-10)
T1 sequence (looked up): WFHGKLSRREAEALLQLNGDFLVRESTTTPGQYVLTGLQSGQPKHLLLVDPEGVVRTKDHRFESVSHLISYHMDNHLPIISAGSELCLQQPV
Kind of assay: fluorescence polarisation; Rhodamine B-labelled peptide in solution with SH2 domain; Beacon 2000; as previously described [40].

Assay [2] concerns the target T2, GST-CrkL SH2 domain (human, UniProt P46109 14-102).
T2 construct: SH2 domain of CrkL; source: E. coli BL21, purified (glutathione sepharose, NAP-10)
The assay is described as above.

The target of assay [3] is T3, GST-Abl2 SH2 domain (human, UniProt P42684 173-263).
T3 construct: SH2 domain of Abl2; source: E. coli BL21, purified (glutathione sepharose, NAP-10)
T3 sequence (looked up): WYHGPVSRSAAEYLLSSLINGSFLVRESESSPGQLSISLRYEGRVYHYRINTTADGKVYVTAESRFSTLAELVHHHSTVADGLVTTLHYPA
The assay is described as above.

For assay [4], the target named is T4, GST-Crk SH2 domain (human, UniProt P46108 13-118).
T4 construct: SH2 domain of Crk; source: E. coli BL21, purified (glutathione sepharose, NAP-10)
The assay is described as above.

Assay [5] deals with T5, GST-Ship2 SH2 domain (human, UniProt O15357 21-117).
T5 construct: SH2 domain of Ship2; source: E. coli BL21, purified (glutathione sepharose, NAP-10)
T5 sequence (looked up): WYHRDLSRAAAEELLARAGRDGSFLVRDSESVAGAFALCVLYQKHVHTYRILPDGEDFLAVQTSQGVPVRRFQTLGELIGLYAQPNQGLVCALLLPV
The description is as above.

In assay [6] the target is T6, GST-Nck1 SH2 domain (human, UniProt P16333 282-376).
T6 construct: SH2 domain of Nck1; source: E. coli BL21, purified (glutathione sepharose, NAP-10)
The assay is described as above.

The target in assay [7] is T7, GST-Grb2 SH2 domain (human, UniProt P62993 60-152).
T7 construct: SH2 domain of Grb2; source: E. coli BL21, purified (glutathione sepharose, NAP-10)
The assay is described as above.

Assay [8] has as its target T8, GST-Src SH2 domain (human, UniProt P12931 151-248).
T8 construct: SH2 domain of Src; source: E. coli BL21, purified (glutathione sepharose, NAP-10)
The description is as above.

Assay [9] has as its target T9, GST-Abl1 SH2 domain (human, UniProt P00519 127-217).
T9 construct: SH2 domain of Abl1; source: E. coli BL21, purified (glutathione sepharose, NAP-10)
T9 sequence (looked up): T3 sequence (looked up) with S9N, L18G, L35R, T53A, A54S, V58L, T61S, A62S, S67N, V84I
Described as above.

Assay [10] concerns the target T10, GST-Shb SH2 domain (human, UniProt Q15464 410-504).
T10 construct: SH2 domain of Shb; source: E. coli BL21, purified (glutathione sepharose, NAP-10)
The assay is described as above.

Assay [11] has as its target T11, GST-Sh2d1b SH2 domain (human, UniProt O14796 5-101).
T11 construct: SH2 domain of Sh2d1b (Eat-2); also called Eat-2; source: E. coli BL21, purified (glutathione sepharose, NAP-10)
T11 sequence (looked up): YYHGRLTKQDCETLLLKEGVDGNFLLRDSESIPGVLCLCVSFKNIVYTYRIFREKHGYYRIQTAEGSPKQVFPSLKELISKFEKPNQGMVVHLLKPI
The description is as above.

The target of assay [12] is T12, GST-Vav1 SH2 domain (human, UniProt P15498 671-765).
T12 construct: SH2 domain of Vav1; source: E. coli BL21, purified (glutathione sepharose, NAP-10)
T12 sequence (looked up): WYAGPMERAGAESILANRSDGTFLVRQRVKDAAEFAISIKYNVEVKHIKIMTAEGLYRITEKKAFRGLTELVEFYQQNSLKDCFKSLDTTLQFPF
The assay is described as above.

For assay [13], the target named is T13, GST-Fgr SH2 domain (human, UniProt P09769 144-241).
T13 construct: SH2 domain of Fgr; source: E. coli BL21, purified (glutathione sepharose, NAP-10)
Described as above.

Assay [14] addresses T14, GST-Itk SH2 domain (human, UniProt Q08881 239-338).
T14 construct: SH2 domain of Itk; source: E. coli BL21, purified (glutathione sepharose, NAP-10)
T14 sequence (looked up): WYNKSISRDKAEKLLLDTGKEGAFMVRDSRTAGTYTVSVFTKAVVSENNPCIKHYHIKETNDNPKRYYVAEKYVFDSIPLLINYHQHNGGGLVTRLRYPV
The assay is described as above.

The target of assay [15] is T15, GST-Fer SH2 domain (human, UniProt P16591 460-550).
T15 construct: SH2 domain of Fer; source: E. coli BL21, purified (glutathione sepharose, NAP-10)
The assay is described as above.

Assay [16] deals with T16, GST-Brk SH2 domain (human, UniProt Q13882 78-170).
T16 construct: SH2 domain of Brk; source: E. coli BL21, purified (glutathione sepharose, NAP-10)
The assay is described as above.

The target in assay [17] is T17, GST-Sh3bp2 SH2 domain (human, UniProt P78314 457-555).
T17 construct: SH2 domain of Sh3bp2; source: E. coli BL21, purified (glutathione sepharose, NAP-10)
T17 sequence (looked up): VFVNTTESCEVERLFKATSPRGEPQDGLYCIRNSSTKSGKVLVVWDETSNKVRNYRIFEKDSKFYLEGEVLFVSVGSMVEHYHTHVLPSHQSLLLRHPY
The assay is described as above.

For assay [18], the target named is T18, GST-Yes SH2 domain (human, UniProt P07947 158-255).
T18 construct: SH2 domain of the kinase Yes; source: E. coli BL21, purified (glutathione sepharose, NAP-10)
Briefly: peptide or protein array; SPOT array of 192 membrane-bound 11-mer phosphotyrosine peptides; GST-SH2 0.25 uM in TBS-T with 5% nonfat milk and 1 mM DTT, 1.5 h, room temperature; anti-GST and Alexa-Fluor-680 secondary, Li-Cor Odyssey; array positive >3X the array mean, array negative <1X, indeterminate between.

Assay [19] concerns the target T19, GST-Sh2b SH2 domain (human, UniProt Q9NRF2 527-625).
T19 construct: SH2 domain of Sh2b; source: E. coli BL21, purified (glutathione sepharose, NAP-10)
Briefly: fluorescence polarisation; Rhodamine B-labelled peptide in solution with SH2 domain; Beacon 2000; as previously described [40]. Background: In fluorescence polarisation assays a small probe gives low polarisation when free and higher when bound to something large.

Assay [20] addresses T20, GST-Tenc1 SH2 domain (human, UniProt Q63HR2 1140-1247).
T20 construct: source: E. coli BL21, purified (glutathione sepharose, NAP-10)
T20 sequence (looked up): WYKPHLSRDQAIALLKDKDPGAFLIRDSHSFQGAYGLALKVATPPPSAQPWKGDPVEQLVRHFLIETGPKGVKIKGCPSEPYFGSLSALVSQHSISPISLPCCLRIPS
Described as above.

Substitutions are numbered along the chain they refer to. Non-standard residues stand in square brackets, D forms with d. No end group written: not given here. pY = N[C@@H](Cc1ccc(OP(=O)(O)O)cc1)C(=O)O

T4 sequence (P46108 13-118): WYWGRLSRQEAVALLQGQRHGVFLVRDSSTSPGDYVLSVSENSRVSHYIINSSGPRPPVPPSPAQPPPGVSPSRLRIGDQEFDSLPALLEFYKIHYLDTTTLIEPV
T2 sequence (P46109 14-102): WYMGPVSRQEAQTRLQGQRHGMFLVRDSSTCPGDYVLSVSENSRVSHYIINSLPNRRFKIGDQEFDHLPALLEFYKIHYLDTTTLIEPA
T7 sequence (P62993 60-152): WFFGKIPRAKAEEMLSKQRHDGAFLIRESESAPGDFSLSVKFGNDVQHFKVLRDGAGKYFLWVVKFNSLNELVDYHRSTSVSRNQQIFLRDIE
T16 sequence (Q13882 78-170): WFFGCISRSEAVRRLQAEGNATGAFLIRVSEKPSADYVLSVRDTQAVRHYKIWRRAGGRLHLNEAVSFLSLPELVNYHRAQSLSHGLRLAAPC
T15 sequence (P16591 460-550): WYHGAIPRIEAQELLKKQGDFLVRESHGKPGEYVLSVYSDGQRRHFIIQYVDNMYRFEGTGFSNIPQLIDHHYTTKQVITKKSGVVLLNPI
T18 sequence (P07947 158-255): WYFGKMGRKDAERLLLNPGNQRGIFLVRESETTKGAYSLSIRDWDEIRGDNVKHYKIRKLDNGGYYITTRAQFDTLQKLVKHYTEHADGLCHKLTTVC
T10 sequence (Q15464 410-504): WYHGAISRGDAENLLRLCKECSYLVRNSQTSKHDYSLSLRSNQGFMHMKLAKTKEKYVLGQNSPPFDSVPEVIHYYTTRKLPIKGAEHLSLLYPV

B1: p130Cas (Y362) phosphopeptide AEDVpYDVPPPA, Rhodamine B-labelled (peptide)
peptide: AEDV[pY]DVPPPA
modifications: not fully specified (N-terminus); also: Rhodamine B label, site not given here
notes: p130Cas (BCAR1) around Y362; source: synthetic peptide (FMOC chemistry), purified by LC/MS
Usually Kd stands for the concentration at which binding is half-saturated. For the molecule B1, the Kd in [1] is 32.8 µM; in [2] it was 0.99 µM; in [3], 14 µM; in assay [4], 0.35 µM; in assay [5], 16.5 µM; in assay [6], 0.93 µM.

B2: IRS-1 (Y1179) phosphopeptide NGLNpYIDLDLV, Rhodamine B-labelled (peptide)
peptide: NGLN[pY]IDLDLV
modifications: not fully specified (N-terminus); also: Rhodamine B label, site not given here
notes: IRS-1 around Y1179; source: synthetic peptide (FMOC chemistry), purified by LC/MS
On to B2, for which the Kd in assay [2] was over 50 µM; in assay [7], over 50 µM; in assay [8], 9.94 µM; in assay [9], 22.2 µM.

B3: FGFR3 (Y760) phosphopeptide STDEpYLDLSAP, Rhodamine B-labelled (peptide)
peptide: STDE[pY]LDLSAP
modifications: also: Rhodamine B label, site not given here
notes: FGFR3 around Y760; source: synthetic peptide (FMOC chemistry), purified by LC/MS
For the molecule B3, the figures for the Kd in assay [3], in assay [10] and in [11] were 27 µM, over 50 µM and 5.3 µM, respectively.

B4: FGFR1 (Y463) phosphopeptide GVSEpYELPEDP, Rhodamine B-labelled (peptide)
peptide: GVSE[pY]ELPEDP
modifications: not fully specified (N-terminus); also: Rhodamine B label, site not given here
notes: FGFR1 around Y463; also called FGFR1 pY-463; source: synthetic peptide (FMOC chemistry), purified by LC/MS
As to B4, the Kd in [2] was over 50 µM; in assay [8], 6.85 µM; in assay [4] it was 44 µM; in assay [12] it was 1.87 µM; in assay [6], 2.45 µM.

B5: p62DOK1 (Y398) phosphopeptide KEEGpYELPYNP, Rhodamine B-labelled (peptide)
peptide: KEEG[pY]ELPYNP
modifications: not fully specified (N-terminus); also: Rhodamine B label, site not given here
notes: p62DOK1 around Y398; source: synthetic peptide (FMOC chemistry), purified by LC/MS
With B5, the Kd stood at 5.74 µM in assay [1]; 2.04 µM in assay [13]; 5.43 µM in assay [14]; 5.06 µM in assay [8]; 13.3 µM in assay [15]; 3.47 µM in assay [3]. The Kd in [4] amounted to 23.7 µM; in assay [12] it was 4.73 µM; in assay [16] it was 0.42 µM; in assay [9], 5.77 µM; in [6] it was 4.37 µM; in assay [17] it was 1.68 µM.

B6: p130Cas (Y234) peptide EQDEYDIPRHL, SPOT array (peptide)
peptide: EQDE[pY]DIPRHL
modifications: also: membrane-bound on SPOT array
notes: p130Cas (BCAR1) around Y234; source: synthetic peptide, SPOT synthesis on cellulose membrane
On to B6, for which the binding result in [18] was “binds”.

B7: IRS-1 (Y896) phosphopeptide SPGEpYVNIEFG, Rhodamine B-labelled (peptide)
peptide: SPGE[pY]VNIEFG
modifications: also: Rhodamine B label, site not given here
notes: IRS-1 around Y896; source: synthetic peptide (FMOC chemistry), purified by LC/MS
On to B7, for which the dissociation constant Kd is 3.58 µM in assay [19]; 0.8 µM in assay [7]; 2.21 µM in [8]; 3.66 µM in assay [3]; over 20 µM in [4]; 7.48 µM in assay [9]. In assay [20], this molecule gave a dissociation constant (Kd) of 24 µM.

Values taken from paper PMC3514216, “SRC Homology 2 Domain Binding Sites in Insulin, IGF-1 and FGF receptor mediated signaling networks reveal an extensive potential interactome” (Cell Communication and Signaling : CCS, 2012).
